Like-named read-outs stand apart in the source and are kept apart here.
Experiments:
[1] = molecular target: T1, integrin αVβ5 (UniProt P06756 31-992; P18084 24-719); experiment: phage ELISA, integrin coated, anti-M13-HRP
T1 construct: Coated on the ELISA plate

[2] = molecular target: T2, integrin αVβ3 (UniProt P06756 31-992; P05106 27-718); experiment: phage ELISA, integrin coated, anti-M13-HRP
T2 construct: Coated on the ELISA plate

[3] = molecular target: T1, integrin αVβ5; experiment: ELISA, integrin coated, anti-MICA-HRP
[4] = molecular target: T2, integrin αVβ3; experiment: ELISA, integrin coated, anti-MICA-HRP
[5] = molecular target: T1, integrin αVβ5; experiment: ELISA, integrin coated, anti-MICA-HRP; remark: listed apart in the source
[6] = molecular target: T2, integrin αVβ3; experiment: ELISA, integrin coated, anti-MICA-HRP; remark: listed apart in the source

T2 sequence (P06756 31-992, chain 1 of 2): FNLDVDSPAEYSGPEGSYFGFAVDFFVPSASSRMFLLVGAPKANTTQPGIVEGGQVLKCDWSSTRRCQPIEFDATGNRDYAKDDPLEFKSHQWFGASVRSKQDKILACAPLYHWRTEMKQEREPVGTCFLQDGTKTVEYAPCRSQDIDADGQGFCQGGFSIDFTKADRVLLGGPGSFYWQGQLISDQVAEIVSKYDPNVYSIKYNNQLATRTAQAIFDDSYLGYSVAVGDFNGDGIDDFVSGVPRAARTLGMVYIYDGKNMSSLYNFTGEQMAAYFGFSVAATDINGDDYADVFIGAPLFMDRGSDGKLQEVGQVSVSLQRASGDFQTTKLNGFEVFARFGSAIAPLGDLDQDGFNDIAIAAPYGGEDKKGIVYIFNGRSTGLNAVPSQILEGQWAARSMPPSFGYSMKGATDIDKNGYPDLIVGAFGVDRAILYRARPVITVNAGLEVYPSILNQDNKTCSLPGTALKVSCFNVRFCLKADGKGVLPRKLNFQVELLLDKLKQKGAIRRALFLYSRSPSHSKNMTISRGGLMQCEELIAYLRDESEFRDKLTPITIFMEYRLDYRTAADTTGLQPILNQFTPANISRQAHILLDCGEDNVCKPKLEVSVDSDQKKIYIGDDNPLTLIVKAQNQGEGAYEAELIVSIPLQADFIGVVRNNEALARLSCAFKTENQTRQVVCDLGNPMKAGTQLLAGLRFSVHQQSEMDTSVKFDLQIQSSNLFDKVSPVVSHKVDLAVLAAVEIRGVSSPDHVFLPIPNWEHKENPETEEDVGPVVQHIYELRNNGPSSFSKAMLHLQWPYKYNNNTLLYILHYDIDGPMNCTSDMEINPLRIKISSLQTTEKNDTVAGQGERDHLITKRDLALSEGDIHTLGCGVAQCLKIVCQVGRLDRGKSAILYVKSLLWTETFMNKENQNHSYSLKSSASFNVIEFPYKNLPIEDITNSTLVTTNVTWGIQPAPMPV
T2 sequence (P05106 27-718, chain 2 of 2): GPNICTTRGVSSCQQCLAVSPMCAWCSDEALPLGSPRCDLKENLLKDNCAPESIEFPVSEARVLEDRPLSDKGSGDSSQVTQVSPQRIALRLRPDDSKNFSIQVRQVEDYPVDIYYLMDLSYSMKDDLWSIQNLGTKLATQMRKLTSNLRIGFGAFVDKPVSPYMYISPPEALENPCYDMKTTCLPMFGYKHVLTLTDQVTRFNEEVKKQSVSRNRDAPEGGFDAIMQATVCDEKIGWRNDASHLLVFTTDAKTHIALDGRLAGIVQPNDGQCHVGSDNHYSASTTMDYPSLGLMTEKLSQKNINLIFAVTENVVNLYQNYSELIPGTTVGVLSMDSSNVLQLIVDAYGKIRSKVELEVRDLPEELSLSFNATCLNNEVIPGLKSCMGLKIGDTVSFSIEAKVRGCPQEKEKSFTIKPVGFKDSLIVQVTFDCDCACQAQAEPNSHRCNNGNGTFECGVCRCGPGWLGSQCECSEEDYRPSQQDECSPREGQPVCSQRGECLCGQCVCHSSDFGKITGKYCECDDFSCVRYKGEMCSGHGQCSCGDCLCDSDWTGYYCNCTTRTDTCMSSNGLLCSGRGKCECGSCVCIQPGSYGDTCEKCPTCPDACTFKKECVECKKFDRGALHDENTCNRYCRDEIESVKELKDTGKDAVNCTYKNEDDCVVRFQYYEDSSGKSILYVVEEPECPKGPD
T1 sequence (P06756 31-992, chain 1 of 2): as the sequence (P06756 31-992, chain 1 of 2) above
T1 sequence (P18084 24-719, chain 2 of 2): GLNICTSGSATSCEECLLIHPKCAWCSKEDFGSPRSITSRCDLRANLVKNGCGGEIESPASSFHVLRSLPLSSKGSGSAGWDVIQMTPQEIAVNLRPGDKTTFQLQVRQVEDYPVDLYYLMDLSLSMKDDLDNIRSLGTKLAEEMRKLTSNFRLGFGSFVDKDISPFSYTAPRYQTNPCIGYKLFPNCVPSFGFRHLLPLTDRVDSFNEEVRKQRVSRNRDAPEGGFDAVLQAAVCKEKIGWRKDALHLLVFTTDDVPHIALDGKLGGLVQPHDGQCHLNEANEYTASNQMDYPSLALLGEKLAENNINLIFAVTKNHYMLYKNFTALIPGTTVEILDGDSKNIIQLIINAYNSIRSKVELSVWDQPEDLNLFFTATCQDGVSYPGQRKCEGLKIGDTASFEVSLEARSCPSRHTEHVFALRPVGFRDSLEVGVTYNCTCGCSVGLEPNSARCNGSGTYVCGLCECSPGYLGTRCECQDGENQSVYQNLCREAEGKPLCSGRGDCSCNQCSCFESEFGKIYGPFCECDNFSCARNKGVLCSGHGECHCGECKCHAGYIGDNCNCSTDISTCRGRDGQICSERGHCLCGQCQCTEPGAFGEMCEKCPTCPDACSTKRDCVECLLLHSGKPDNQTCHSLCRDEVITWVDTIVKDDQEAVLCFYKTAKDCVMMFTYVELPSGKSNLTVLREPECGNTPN

B1: M13 phage pKK136 displaying MICA α3 domain with extended 5.1sp in loop 1 and extended 3.2sp in loop 3 (designed binder, not shown: large carriers)
chain: TVPPMVNVTSGGSGGGSVTRGDTFTQSSGGSGGGVTCRASGFYPWNITLSWRQDGVSLSHDTQQWGDVLPDGNGTYQTWVATRISGGSGGGSTSRGDHPRTQSGGSGGGCYMEHSGNHSTHPVPSGK
- signal [1]: 4.28 OD
- signal [2]: 2.46 OD

B2: M13 phage pKK138 displaying MICA α3 domain with extended 5.1sp in loop 1 and extended 5.3sp in loop 3 (designed binder, not shown: large carriers)
chain: TVPPMVNVTSGGSGGGSVTRGDTFTQSSGGSGGGVTCRASGFYPWNITLSWRQDGVSLSHDTQQWGDVLPDGNGTYQTWVATRISGGSGGGSHLARGDDLTYSGGSGGGCYMEHSGNHSTHPVPSGK
- signal [1]: 2.75 OD
- signal [2]: 0.886 OD

B3: M13 phage pKK139 displaying MICA α3 domain with extended 5.1sp in loop 1 and extended 5.1spNH in loop 3 (designed binder, not shown: large carriers)
chain: TVPPMVNVTSGGSGGGSVTRGDTFTQSSGGSGGGVTCRASGFYPWNITLSWRQDGVSLSHDTQQWGDVLPDGNGTYQTWVATRISGGSGGGSVTRGDTFTQSSGGSGGGCYMEHSGNHSTHPVPSGK
- signal [1]: 5.36 OD
- signal [2]: 2.48 OD

B4: soluble MICA generated by pKK46 (extended loop 5.1sp in loop 1) (designed binder)
chain: HHHHHHEPHSLRYNLTVLSWDGSVQSGFLTEVHLDGQPFLRCDRQKCRAKPQGQWAEDVLGNKTWDRETRDLTGNGKDLRMTLAHIKDQKEGLHSLQEIRVCEIHEDNSTRSSQHFYYDGELFLSQNLETEEWTMPQSSRAQTLAMNVRNFLKEDAMKTKTHYHAMHADCLQELRRYLKSGVVLRRTVPPMVNVTSGGSGGGSVTRGDTFTQSSGGSGGGVTCRASGFYPWNITLSWRQDGVSLSHDTQQWGDVLPDGNGTYQTWVATRICQGEEQRFTCYMEHSGNHSTHPVPSGK
- signal [3]: 0.66 OD
- signal/ng [3]: 13.3 signal/ng
- signal [4]: 0.467 OD
- signal/ng [4]: 9.42 signal/ng
- signal [5]: 1.06 OD
- signal/ng [5]: 25.5 signal/ng
- signal [6]: 0.384 OD
- signal/ng [6]: 9.2 signal/ng

B5: M13 phage pKK106 displaying wild type MICA α3 domain fused to pIII (other)
chain: TVPPMVNVTRSEASEGNITVTCRASGFYPWNITLSWRQDGVSLSHDTQQWGDVLPDGNGTYQTWVATRICQGEEQRFTCYMEHSGNHSTHPVPSGK
notes: also called WT; not shown: M13 phage capsid protein pIII, C-terminal portion, fused at codon position 198
- signal [1]: 0 OD
- signal [2]: 0 OD

B6: M13 phage pKK108 displaying MICA α3 domain with tight T-3.5 in loop 1 (designed binder)
chain: TVPPMVNGSRGDSLIMHCRASGFYPWNITLSWRQDGVSLSHDTQQWGDVLPDGNGTYQTWVATRICQGEEQRFTCYMEHSGNHSTHPVPSGK
notes: α3 amplified from pKK53; also called 1-T-3.5; not shown: M13 phage capsid protein pIII, C-terminal portion, fused at codon position 198
- signal [1]: -0.204 OD
- signal [2]: -0.09 OD
